1 molecule from PMC2810336, “Mutational Analysis of Highly Conserved Residues in the Phage PhiC31 Integrase Reveals Key Amino Acids Necessary for the DNA Recombination” can be followed below.

Residue numbers refer to the chain shown, from its start.

For data set [1], the target named is T1, phiC31 integrase C376A/G377A (Streptomyces phage phiC31, UniProt Q38194 1-613, C376A;G377A).
T1 sequence: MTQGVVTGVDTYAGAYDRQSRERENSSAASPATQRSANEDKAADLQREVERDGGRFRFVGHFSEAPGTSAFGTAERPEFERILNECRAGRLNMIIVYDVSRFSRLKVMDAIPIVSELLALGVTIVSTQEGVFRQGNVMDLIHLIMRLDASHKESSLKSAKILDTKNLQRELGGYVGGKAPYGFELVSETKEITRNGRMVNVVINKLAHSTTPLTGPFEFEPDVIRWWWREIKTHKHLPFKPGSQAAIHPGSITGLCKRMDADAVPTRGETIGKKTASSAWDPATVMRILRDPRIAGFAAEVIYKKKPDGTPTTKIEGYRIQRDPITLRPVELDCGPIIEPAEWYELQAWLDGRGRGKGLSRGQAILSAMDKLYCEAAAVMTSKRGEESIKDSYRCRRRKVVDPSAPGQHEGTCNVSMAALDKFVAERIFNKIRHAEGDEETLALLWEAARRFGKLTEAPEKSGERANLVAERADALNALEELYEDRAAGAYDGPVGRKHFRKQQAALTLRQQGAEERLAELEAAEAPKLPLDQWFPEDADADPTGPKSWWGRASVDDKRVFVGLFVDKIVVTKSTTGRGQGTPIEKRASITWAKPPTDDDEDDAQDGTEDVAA
Put plainly: EMSA; 400 nM protein; 50 ng/ul Poly (competitor (so in the source)), 0.05% NP-40, 50 mM KCl, 5 mM MgCl2, 10 mM EDTA, 20 ul, 0.4 ng (16 fmol) probe; 30 min at room temperature (Methods) or 30 C; pH not stated; synapsis 2 h at 30 C. The following applies: protein: recombinant; tags: C-terminal His; chain copies: 2; label: biotin, double-strand end-labeled; blunt. On the technique in general: In EMSA bound probe runs differently from free probe, usually more slowly.

For data set [2], the target named is T2, phiC31 integrase G182A/F183A (Streptomyces phage phiC31, UniProt Q38194 1-613, G182A;F183A).
T2 sequence: T1 sequence with G182A, F183A, A376C, A377G
The data set is described as above. To be noted: protein: recombinant; tags: C-terminal His; chain copies: 2; label: biotin, double-strand end-labeled; blunt.

Another data set deals with T3, phiC31 integrase WT (Streptomyces phage phiC31, UniProt Q38194 1-613).
T3 sequence: T1 sequence with A376C, A377G
Put plainly: EMSA; complexes I, II, III; reference; competed by excess cold attB; 50 ng/ul Poly (competitor (so in the source)), 0.05% NP-40, 50 mM KCl, 5 mM MgCl2, 10 mM EDTA, 20 ul, 0.4 ng (16 fmol) probe; 30 min at room temperature (Methods) or 30 C; pH not stated; synapsis 2 h at 30 C. To be noted: protein: recombinant; tags: C-terminal His (pET22b); chain copies: 2; label: biotin, double-strand end-labeled; blunt.

B1: attB 41 bp (dsDNA)
DNA 1: CGGGTGCCAGGGCGTGCCCTTGGGCTCCCCGGGCGCGTACT
DNA 2: AGTACGCGCCCGGGGAGCCCAAGGGCACGCCCTGGCACCCG
Turning to B1, the binding signal in data set [1] is 0 % of WT; in data set [2] it was 0 % of WT; in the data set with phiC31 integrase WT, 100 % of WT.
